Our source for the OD450 values is patent US20170056521A1.

The assay concerns the target human HLA-A2 (human). Put plainly: single colony ELISA; soluble scFv supernatant on coated HLA-A2 (0.5 µg/well), anti-E-tag-HRP detection. A general note: An ELISA detects its analyte on a solid surface through an enzyme-linked reagent.

B1: scFv clone 3E10 (scFv)
scFv: DIQMTQSPSSLSASVGDRVTITCRASQDVFFFVAWYQQKPGKAPKLLIYGPPGLYSGVPSRFSGSGSGTDFTLTISSLQPEDFATYYCQQYFSFPITFGQGTKVEIKRGGGGSIEGRSGGGGSEVQLVESGGGLVQPGGSLRLSCAASGFTISNGGIHWVRQAPGKGLEWVASIWPSGGYTSYADSVKGRFTISADTSKNTAYLQMNSLRAEDTAVYYCARFGVNYHGIMDYWGQGTLVTVSS
With B1, the OD450 amounted to 1.3 OD450.
